Data published in the supplement of paper PMC9732359.
± gives the uncertainty stated by the source.

Test: protein stability index of a GFP-peptide fusion (yeast GPS) (PSI 1-4); higher = more stable; sorted into four equal gates, so the index is relative within each strain
How it was run: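 The protein stability index of a peptide was calculated by multiplying its read frequency in each gate by that gate's number and adding the products. The peptides were tiled 17-residue stretches of yeast proteins, fused downstream of GFP on a Cherry-expressing plasmid and carried in yeast as a pooled library. Mid-log cultures in leucine-free medium were sorted into four equal gates by GFP/Cherry ratio, and each gate's plasmids were PCR-amplified and Illumina-sequenced.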

| Sequence | protein stability index (doa10∆) | protein stability index (pdr5∆) | protein stability index (san1∆) | protein stability index (ubr1∆) |
| --- | --- | --- | --- | --- |
| ITFHPKIRARSITLQGD [SMC2] | 2.48 ± 0.049 | 2.56 ± 0.045 | 2.69 ± 0.051 | 2.48 ± 0.043 |
| LCYMAPMTVKLVQLPKS [POP3] | 2.37 ± 0.065 | 2.23 ± 0.063 | 2.39 ± 0.06 | 2.76 ± 0.065 |
| KIITSRPLQKIMLLQLE [SIN4] | 2.12 ± 0.06 | 2.08 ± 0.052 | 2 ± 0.071 | 1.63 ± 0.044 |
| NSSEQESDYEPNNETSV [SIR3] | 3.11 ± 0.084 | 3.27 ± 0.085 | 3.02 ± 0.063 | 2.84 ± 0.092 |
| QEQLKQMDQQLQYTALT [ARP7] | 2.71 ± 0.16 | 2.67 ± 0.25 | 2.55 ± 0.2 | 3 ± 0.18 |
| IDQAHVSEITKLKFFPS [RPN14] | 3.12 ± 0.077 | 3.01 ± 0.071 | 3.12 ± 0.054 | 3.28 ± 0.053 |
| EVVSEAINIMNRSNDAL [FAS2] | 3.32 ± 0.12 | 3.44 ± 0.13 | 3.44 ± 0.049 | 3.31 ± 0.16 |
| GQSTILVGSEIYEKLKN [CDC53] | 2.67 ± 0.14 | 3.12 ± 0.15 | 1.36 ± 0.21 | 1.96 ± 0.077 |
| STGDYTFTIQLLKLTKV [YML103C/NUP188] | 1.58 ± 0.075 | 2.92 ± 0.13 | 2.16 ± 0.12 | 2.51 ± 0.11 |
| DKLINDVTAIQTWSYLS [ECM29] | 1.77 ± 0.04 | 1.78 ± 0.04 | 1.74 ± 0.087 | 1.83 ± 0.044 |
| KIDGNPDELIKAGVEAI [PRE5] | 3.32 ± 0.17 | 3.44 ± 0.2 | 3.29 ± 0.083 | 3.36 ± 0.092 |
| ATSFSRKKARTFDSSWN [FAS2] | 2.22 ± 0.17 | 2.99 ± 0.18 | 2.65 ± 0.16 | 3.05 ± 0.076 |
| DVFDTLATYCPRVQGFY [GRR1] | 2.65 ± 0.075 | 2.26 ± 0.054 | 2.36 ± 0.078 | 2.6 ± 0.055 |
| YVAIVVDPLKSLEDKIL [RRI1] | 1.12 ± 0.069 | 1.38 ± 0.07 |  | 1.68 ± 0.081 |
| ISKDCSAFACKTDEVII [BRR2] | 2.99 ± 0.12 | 3.38 ± 0.082 | 3.44 ± 0.088 | 2.88 ± 0.073 |
| DKKLLRRLLNLYNDNNK [SWI1] | 2.48 ± 0.088 | 2.62 ± 0.072 | 2.57 ± 0.085 | 2.6 ± 0.068 |
| DLQLLYVESDEDDTQIV [IRR1] | 3.32 ± 0.17 | 3.21 ± 0.14 | 3.07 ± 0.084 | 3.16 ± 0.12 |
| SMRIQILRRQAILRQQQ [GAL11] | 3.19 ± 0.29 | 2.98 ± 0.17 | 3.17 ± 0.19 |  |
| SVIVDSKVTVPPSKHST [ESC2] | 2.75 ± 0.11 | 2.93 ± 0.089 | 2.72 ± 0.092 | 2.81 ± 0.049 |
| LPLISTDVLEISKQRTF [YMR129W/POM152] | 2.17 ± 0.068 | 2.74 ± 0.06 | 2.46 ± 0.062 | 2.51 ± 0.049 |
| YKLNVRSNDPQSSLSKV [NUT2] | 3.21 ± 0.12 | 3.42 ± 0.12 | 3.33 ± 0.071 | 3.41 ± 0.095 |
| DEDEDEDEDDDDDDDED [QCR6] | 2.25 ± 0.039 | 1.96 ± 0.036 | 2.05 ± 0.047 | 1.98 ± 0.05 |

| Sequence | protein stability index (doa10∆) | protein stability index (pdr5∆) | protein stability index (san1∆) | protein stability index (ubr1∆) |
| --- | --- | --- | --- | --- |
| VSKKWAAAGVCEKWAAS [RPL14B] | 2.64 ± 0.077 | 3.1 ± 0.14 | 2.73 ± 0.084 | 2.51 ± 0.066 |
| RCIGDSDNVSFEIQGVP [YMR129W/POM152] | 3.17 ± 0.1 | 3.39 ± 0.085 | 3.28 ± 0.059 | 3.35 ± 0.06 |
| QQQQMQQQQQQQQQQQN [SSN2] | 2.31 ± 0.11 | 2.63 ± 0.098 | 2.8 ± 0.18 | 2.83 ± 0.1 |
| SSFSKKTLTEEVTKSSH [YIL149C/MLP2] | 2.69 ± 0.054 | 2.88 ± 0.058 | 2.77 ± 0.071 | 3.09 ± 0.048 |
| NESKIKELNEKIQKLEE [RPN7] | 2.95 ± 0.16 | 2.48 ± 0.11 | 2.26 ± 0.14 | 2.09 ± 0.14 |
| KSITLKGRNNESNNKKY [YDL088C/ASM4] | 3.19 ± 0.086 | 3.11 ± 0.066 | 3.13 ± 0.059 | 3.08 ± 0.064 |
| GINKNEEYRKQLDKKNE [SMC1] | 3.22 ± 0.12 | 2.62 ± 0.069 | 2.3 ± 0.082 | 2.58 ± 0.045 |
| RIKEMYWKLWIDEPFNL [FAS1] | 3.39 ± 0.086 | 3.25 ± 0.078 | 2.76 ± 0.12 | 2.91 ± 0.075 |
| LPLATQQQVLNKLRQQA [SNF5] | 2.56 ± 0.27 |  |  |  |
| QGMEGTVDLALFGSPPF [YMR129W/POM152] | 3.39 ± 0.079 | 3.41 ± 0.068 | 3.35 ± 0.076 | 3.21 ± 0.047 |
| VEASRRRRSSTNKSKRP [MED1] | 3.19 ± 0.066 | 3.31 ± 0.056 | 3.22 ± 0.044 | 3.28 ± 0.043 |
| LKKKVVDPFTRKEWFDI [RPS1B] | 2.97 ± 0.075 | 3.18 ± 0.071 | 3.18 ± 0.045 | 2.88 ± 0.049 |
| AFSFGAKPDEKKNDEVS [YJL041W/NSP1] | 3.22 ± 0.16 | 3.19 ± 0.15 |  | 3.26 ± 0.17 |
| TSLQGTYEAIEITDAYC [YMR129W/POM152] | 2.63 ± 0.053 | 2.86 ± 0.059 | 2.74 ± 0.049 | 2.52 ± 0.038 |
| AHVNKVTEETTKQIQSV [SIR4] | 2.81 ± 0.095 | 2.89 ± 0.078 | 2.98 ± 0.041 | 2.53 ± 0.061 |
| KAKNPLTHSTPKNFGIG [RPL8B] | 3.31 ± 0.13 | 3.35 ± 0.12 | 3.14 ± 0.074 | 3.08 ± 0.05 |
| SDSYKVSLQNFSSSVSL [RRP40] | 2.69 ± 0.055 | 1.8 ± 0.044 | 2.02 ± 0.079 | 1.91 ± 0.037 |
| FESSSSLPFLLRHMPLA [SSN2] | 2.17 ± 0.16 | 1.61 ± 0.17 | 2.76 ± 0.18 | 1.48 ± 0.11 |
| QITIEPGVDVEVVVASN [RPS20] | 2.53 ± 0.061 | 2.57 ± 0.099 | 3.01 ± 0.098 | 2.51 ± 0.066 |
| DYINELSNSNRFELHGD [REC8] | 2.78 ± 0.12 | 3.08 ± 0.11 | 3 ± 0.092 | 3.03 ± 0.13 |
| NKQYHQANSNLTLLERK [NUT1] | 2.34 ± 0.054 | 2.77 ± 0.055 | 2.59 ± 0.082 | 2.83 ± 0.066 |
